Test results: patent US20230348630A1 (BEIJING MABWORKS BIOTECH, published 2023)
Read-outs that look alike come from different tables or passages of the source.

Columns and labels:
[1] = target: T1, mouse BCMA on HEK293A/mouse BCMA cells (mouse, UniProt O88472 1-185); assay: flow cytometry on HEK293A/mouse BCMA cells
T1 sequence: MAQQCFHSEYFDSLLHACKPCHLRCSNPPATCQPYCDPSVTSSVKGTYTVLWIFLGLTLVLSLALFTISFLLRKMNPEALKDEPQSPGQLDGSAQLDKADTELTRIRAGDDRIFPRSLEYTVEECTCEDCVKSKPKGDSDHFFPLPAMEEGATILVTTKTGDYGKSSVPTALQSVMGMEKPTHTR
Description: (§1) The anti-BCMA antibody's binding capability to cell surface BCMAs was tested by FACS. Briefly, HEK293A/human BCMA cells, HEK293A/monkey BCMA cells and HEK293A/mouse BCMA cells, as generated in Example 1, were collected, digested with trypsin, and subjected to centrifugation at 300 g for 5 min. The cells were suspended in PBS, and subjected to centrifugation again. The cells were re-suspended in PBS with 2% FBS at the cell density at 4×10⁶/ml, and 50 μl cells were seeded onto a U-bottom plate. […] The plate was washed with 2% FBS-PBS for three times, added with 50 μl PE-labeled goat-anti-human IgG (H+L) (1: 500), and incubated at room temperature for 45 min. The plate was washed with 2% FBS-PBS again for three times, and added with 150 μl 2% FBS-PBS to suspend the cells. The plate was measured for cell fluorescence using a cytometry, and the data was processed with FlowJo and analyzed with GraphPad.

[2] = target: T2, human BCMA on HEK293A/human BCMA cells (human, UniProt Q02223 1-184); assay: flow cytometry on HEK293A/human BCMA cells, without soluble BCMA
T2 sequence: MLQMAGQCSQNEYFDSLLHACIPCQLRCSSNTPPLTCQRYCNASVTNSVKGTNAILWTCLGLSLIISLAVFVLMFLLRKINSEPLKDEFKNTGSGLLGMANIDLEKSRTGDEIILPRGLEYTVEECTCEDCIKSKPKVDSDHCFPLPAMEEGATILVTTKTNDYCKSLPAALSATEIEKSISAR
Description: Briefly, 10⁵ HEK293A/human BCMA cells in 100 μl culture medium were seeded on a 96-well plate, and the plate […] After 1-h incubation at 4° C., the plate was washed with PBS for three times, added with APC-goat-anti-mouse IgG (1:500 dilution, Cat #: 405308, BioLegend, US), inducted at 4° C. for 1 h, washed with PBS for three times, and measured for cell fluorescence using a FACS analyzer (BD).

[3] = target: T3, human BAFFR on HEK293A/human BAFFR cells (human, UniProt Q96RJ3 1-184); assay: flow cytometry on HEK293A/human BAFFR cells
T3 sequence: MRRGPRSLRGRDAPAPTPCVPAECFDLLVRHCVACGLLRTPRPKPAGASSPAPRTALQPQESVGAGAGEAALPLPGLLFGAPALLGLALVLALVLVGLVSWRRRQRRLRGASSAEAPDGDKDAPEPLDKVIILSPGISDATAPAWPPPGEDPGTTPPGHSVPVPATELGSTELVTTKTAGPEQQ

[4] = target: T4, monkey BCMA on HEK293A/monkey BCMA cells (monkey, UniProt Q02223 1-184 (human entry)); assay: flow cytometry on HEK293A/monkey BCMA cells
Description: as §1

[5] = target: T2, human BCMA on HEK293A/human BCMA cells; assay: flow cytometry on HEK293A/human BCMA cells
Description: as §1

[6] = target: T5, BCMA-his protein (Cat #: BCA-H522y, ACRO) (human, UniProt Q02223 1-54); assay: SPR (BIAcore 8K), antibody captured by anti-human Fc, BCMA protein as analyte
T5 construct: Bought recombinant protein; the construct is most likely only a soluble part of it; also called BCMA protein; human BCMA
T5 sequence: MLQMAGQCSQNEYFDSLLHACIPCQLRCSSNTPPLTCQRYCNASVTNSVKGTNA
Description: Briefly, the mouse anti-human Fc antibody (Cat #: BR100839, cytiva) was coupled to CMS biosensor chip. […] Chip regeneration was performed with 3 M MgCl₂.

[7] = target: T5, BCMA-his protein (Cat #: BCA-H522y, …); assay: ELISA, coated BCMA protein
Description: (§2) Briefly, an ELISA plate was coated with 100 μl 1 μg/ml BCMA protein (Cat #: BCA-H522y, ACRO) in PBS overnight at 4° C. Then, the plate was blocked with 250 μl PBST with 4% skimmed milk at room temperature for 1 h. […] The negative control well was added with PBST instead of the antibody. The plate was washed with PBST for three times, added with 100 μl HRP conjugated goat anti-human IgG (1:7000, Cat #: 31413, thermofisher), and incubated at room temperature for 1 h. The plate was washed again with PBST for four times, added with 100 μl freshly prepared TMB (Cat #: 555214, BD, USA), and left still for color development, which was terminated with 50 μl 10% H₂SO₄. The absorbance was read at 450 nm, and the data was processed and analyzed using GraphPad.

[8] = target: T6, human TACI on HEK293A/human TACI cells (human, UniProt O14836 1-293); assay: flow cytometry on HEK293A/human TACI cells
T6 sequence: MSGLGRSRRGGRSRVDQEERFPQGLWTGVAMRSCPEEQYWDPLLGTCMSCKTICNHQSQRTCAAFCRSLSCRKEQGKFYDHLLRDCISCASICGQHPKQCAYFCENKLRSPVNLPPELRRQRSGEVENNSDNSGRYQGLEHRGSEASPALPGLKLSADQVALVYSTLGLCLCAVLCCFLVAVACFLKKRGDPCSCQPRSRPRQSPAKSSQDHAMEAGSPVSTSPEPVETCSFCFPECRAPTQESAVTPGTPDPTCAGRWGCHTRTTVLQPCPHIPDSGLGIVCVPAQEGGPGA

[9] = target: T2, human BCMA on HEK293A/human BCMA cells; assay: flow cytometry on HEK293A/human BCMA cells in the presence of 1 µg/ml soluble human BCMA-his protein
Description: Briefly, 10⁵ HEK293A/human BCMA cells in 100 μl culture medium were seeded on a 96-well plate, and the plate was further added with 50 μl serially diluted antibody or PBS followed by the human BCMA-his proteins (Cat #: 10620-H08H, Sino Biological) at the final concentration of 1 μg/ml. After 1-h incubation at 4° C., the plate was washed with PBS for three times, added with APC-goat-anti-mouse IgG (1:500 dilution, Cat #: 405308, BioLegend, US), inducted at 4° C. for 1 h, washed with PBS for three times, and measured for cell fluorescence using a FACS analyzer (BD).

[10] = target: T5, BCMA-his protein (Cat #: BCA-H522y, …); assay: ELISA, coated BCMA protein; remark: listed apart in the source
Description: as §2
(§3) The purified bispecific antibodies were tested for their binding capability to recombinant human CD3 and human BCMA proteins by ELISA, following the protocols in Example 4 and Example 9.

[11] = target: T4, monkey BCMA on HEK293A/monkey BCMA cells; assay: flow cytometry on HEK293A/monkey BCMA cells; remark: listed apart in the source
Description: as §1
(§4) Following the protocol of Example 6, the bispecific antibodies of the disclosure were tested for their binding capability to the HEK293A/human BCMA cells, HEK293A/monkey BCMA cells, and HEK293A/mouse BCMA cells as generated in Example 1.

[12] = target: T7, CD3D&E protein (Cat #: CT038-H2508H, Sino Biological) (human, UniProt P04234 22-105; P07766 23-126); assay: ELISA, coated CD3D&E
T7 construct: Bought complex of the delta and epsilon chains; also called CD3D&E complex; human CD3D&E complex
Description: as §3

[13] = target: T7, CD3D&E protein (Cat #: CT038-H2508H, …); assay: SPR (BIAcore 8K), protocol of Example 10
Description: Following the protocols in Example 5 and Example 10, the bispecific antibodies of the disclosure were tested for their binding affinity to CD3D&E and human BCMA.

[14] = target: T2, human BCMA on HEK293A/human BCMA cells; assay: flow cytometry on HEK293A/human BCMA cells; remark: listed apart in the source
Description: as §1, §4

CD3 on Jurkat cells = target: T8, CD3 on Jurkat cells (UniProt P04234 22-171; P07766 23-207); assay: flow cytometry on Jurkat cells
T8 construct: whole, on cells
Description: Jurkat cells were collected, centrifuged at 300 g for 5 min, and suspended in PBS. After another centrifugation, the cells were suspended in 2% FBS-PBS at the cell density of 3×10⁶/ml, and […] were plated onto a U-bottom plate. The plate was added with 50 μl serially diluted anti-CD3 antibodies of the disclosure in 2% FBS-PBS (4-fold dilution, starting at 20 μg/ml), and incubated at room temperature for 1 h. The plate was washed with 2% FBS-PBS for three times, added with 50 μl PE-labeled goat-anti-human IgG (H+L) (1: 500), and incubated at room temperature for 45 min. The plate was washed with 2% FBS-PBS again for three times, and added with 150 μl 2% FBS-PBS to suspend the cells. The plate was measured for cell fluorescence using a cytometry, and the data was processed with FlowJo and analyzed with GraphPad.
Following the protocol of Example 11, the bispecific antibodies of the disclosure were tested for their binding capability to Jurkat cells.

[15] = target: T1, mouse BCMA on HEK293A/mouse BCMA cells; assay: flow cytometry on HEK293A/mouse BCMA cells [continued) F]
Description: as §1, §4

T4 sequence (Q02223 other isoform, or with tags, fused parts or gaps): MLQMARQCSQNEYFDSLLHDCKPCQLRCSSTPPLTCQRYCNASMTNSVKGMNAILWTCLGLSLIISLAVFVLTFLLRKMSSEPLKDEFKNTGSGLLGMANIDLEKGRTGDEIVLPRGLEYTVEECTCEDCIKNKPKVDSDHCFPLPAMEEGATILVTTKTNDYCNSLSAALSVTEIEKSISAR
T7 sequence (P04234 22-105, form in doubt, chain 1 of 2): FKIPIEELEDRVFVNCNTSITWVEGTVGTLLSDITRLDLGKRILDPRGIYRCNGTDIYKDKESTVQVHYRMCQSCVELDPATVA
T7 sequence (P07766 23-126, form in doubt, chain 2 of 2): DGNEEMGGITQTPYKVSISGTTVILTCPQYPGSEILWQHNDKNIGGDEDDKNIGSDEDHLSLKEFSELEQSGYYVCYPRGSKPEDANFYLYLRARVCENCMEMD
T8 sequence (P04234 22-171, chain 1 of 2): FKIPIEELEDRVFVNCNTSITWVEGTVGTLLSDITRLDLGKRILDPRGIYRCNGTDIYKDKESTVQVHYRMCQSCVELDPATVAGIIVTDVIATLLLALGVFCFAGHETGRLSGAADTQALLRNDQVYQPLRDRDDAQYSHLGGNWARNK
T8 sequence (P07766 23-207, chain 2 of 2): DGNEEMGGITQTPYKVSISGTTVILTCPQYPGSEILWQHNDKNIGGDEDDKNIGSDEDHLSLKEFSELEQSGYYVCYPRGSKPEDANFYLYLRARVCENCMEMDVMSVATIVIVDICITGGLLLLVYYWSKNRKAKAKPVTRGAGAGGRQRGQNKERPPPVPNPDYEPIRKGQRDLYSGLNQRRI

B1: anti-BCMA antibody A6-3, full-length human IgG1/kappa (antibody, V domains shown)
VH: QVQLVQSGAEVKKPGASVKVSCKASGYTFTNHIIHWVRQAPGQGLEWMGYINPYPGYHGYNDKFSGRATMTSDTSTSTVYMELSSLRSEDTAVYYCARDGYYRDQDVLDYWGQGTLVTVSS
VL: DIQMTQSPSSLSASVGDRVTITCKASQDISQYLNWYQQKPGKAPKLLIYYTSGLHPGVPSRFSGSGSGTDFTFTISSLEPEDIATYYCQQGYALPWTFGQGTKVEIKR
notes: Expressed in HEK293F cells, purified on Protein A
Question: Does B1 bind [1]?
Answer: no binding

Question: And the “EC50 (read off the curve)” value [2]?
Answer: ~0.4 µg/mL

Question: Does B1 bind [3]?
Answer: no binding (tested: 100 µg/ml and 10 µg/ml)

Question: What about the EC50 [4] of the same binder?
Answer: 0.0986 µg/mL

Question: And the EC50 [5]?
Answer: 0.0415 µg/mL

Question: What about the Kd [6] of the same binder?
Answer: 0.132 nM

Question: And the EC50 [7]?
Answer: 0.00733 µg/mL

Question: Does B1 bind [8]?
Answer: no binding (tested: 100 µg/ml and 10 µg/ml)

Question: What about the “EC50 (read off the curve)” value [9] of the same binder?
Answer: ~1 µg/mL

B2: anti-CD3/BCMA bispecific antibody MBS305-L-KIH (bispecific antibody, human IgG1, kappa, L234A L235A, N297A)
heavy 1: QVQLVQSGAEVKKPGASVKVSCKASGYTFTNHIIHWVRQAPGQGLEWMGYINPYPGYHGYNDKFSGRATMTSDTSTSTVYMELSSLRSEDTAVYYCARDGYYRDQDVLDYWGQGTLVTVSSASTKGPSVFPLAPSSKSTSGGTAALGCLVKDYFPEPVTVSWNSGALTSGVHTFPAVLQSSGLYSLSSVVTVPSSSLGTQTYICNVNHKPSNTKVDKKVEPKSCDKTHTCPPCPAPEAAGGPSVFLFPPKPKDTLMISRTPEVTCVVVDVSHEDPEVKFNWYVDGVEVHNAKTKPREEQYASTYRVVSVLTVLHQDWLNGKEYKCKVSNKALPAPIEKTISKAKGQPREPQVYTLPPSREEMTKNQVSLSCAVKGFYPSDIAVEWESNGQPENNYKTTPPVLDSDGSFFLVSKLTVDKSRWQQGNVFSCSVMHEALHNHYTQKSLSLSPGK
light 1: not shown
heavy 2: QVQLVQSGAEVKKPGASVKVSCKASGYTFTNHIIHWVRQAPGQGLEWMGYINPYPGYHGYNDKFSGRATMTSDTSTSTVYMELSSLRSEDTAVYYCARDGYYRDQDVLDYWGQGTLVTVSSGGGGSGGGGSGGGGSGGGGSDIQMTQSPSSLSASVGDRVTITCKASQDISQYLNWYQQKPGKAPKLLIYYTSGLHPGVPSRFSGSGSGTDFTFTISSLEPEDEATYYCQQGYALPWTFGQGTKLTAKRGGGGSGGGGSGGGGSEVQLVESGGGLVQPGRSLRLSCAASGFTFGDYAMHWVRQAPGKGLEWVSGISWNHGHIGYADSVKGRFTISRDNAKKSLYLQMNSLRAEDTALYYCAKDNSGYGHYYYGMDVWGQGTTVTVASASTKGPSVFPLAPSSKSTSGGTAALGCLVKDYFPEPVTVSWNSGALTSGVHTFPAVLQSSGLYSLSSVVTVPSSSLGTQTYICNVNHKPSNTKVDKKVEPKSCDKTHTCPPCPAPEAAGGPSVFLFPPKPKDTLMISRTPEVTCVVVDVSHEDPEVKFNWYVDGVEVHNAKTKPREEQYASTYRVVSVLTVLHQDWLNGKEYKCKVSNKALPAPIEKTISKAKGQPREPQVYTLPPSREEMTKNQVSLWCLVKGFYPSDIAVEWESNGQPENNYKTTPPVLDSDGSFFLYSKLTVDKSRWQQGNVFSCSVMHEALHNHYTQKSLSLSPGK
light 2: not shown
Question: B2 was tested. Which EC50 [10] did it give?
Answer: 0.0196 µg/mL

Question: And the EC50 [11]?
Answer: 0.289 µg/mL

Question: And the EC50 [12]?
Answer: 0.267 µg/mL

Question: And the Kd [13]?
Answer: 675 nM

Question: And the EC50 [14]?
Answer: 0.187 µg/mL

Question: And the EC50 (CD3 on Jurkat cells)?
Answer: 0.00301 µg/mL

Question: Does B2 bind [15]?
Answer: no binding (tested: about 30000 ng/ml (LOG10 about 4.5))
